Measured values reported in article PMC2949612, “The effects of oligomerization on Saccharomyces cerevisiae Mcm4/6/7 function” (BMC Biochemistry, 2010).
Changes are numbered by the printed parent chain.

T1: Mcm4 (S. cerevisiae, UniProt P30665 1-933)
T1 construct: Mcm4, S. cerevisiae; the entire MCM4 ORF stands on pET11a-MCM4; also called minichromosome maintenance protein 4; source: purified (ammonium sulphate, SP Sepharose, heparin agarose, ssDNA Sepharose, Mono S)
T1 sequence (looked up): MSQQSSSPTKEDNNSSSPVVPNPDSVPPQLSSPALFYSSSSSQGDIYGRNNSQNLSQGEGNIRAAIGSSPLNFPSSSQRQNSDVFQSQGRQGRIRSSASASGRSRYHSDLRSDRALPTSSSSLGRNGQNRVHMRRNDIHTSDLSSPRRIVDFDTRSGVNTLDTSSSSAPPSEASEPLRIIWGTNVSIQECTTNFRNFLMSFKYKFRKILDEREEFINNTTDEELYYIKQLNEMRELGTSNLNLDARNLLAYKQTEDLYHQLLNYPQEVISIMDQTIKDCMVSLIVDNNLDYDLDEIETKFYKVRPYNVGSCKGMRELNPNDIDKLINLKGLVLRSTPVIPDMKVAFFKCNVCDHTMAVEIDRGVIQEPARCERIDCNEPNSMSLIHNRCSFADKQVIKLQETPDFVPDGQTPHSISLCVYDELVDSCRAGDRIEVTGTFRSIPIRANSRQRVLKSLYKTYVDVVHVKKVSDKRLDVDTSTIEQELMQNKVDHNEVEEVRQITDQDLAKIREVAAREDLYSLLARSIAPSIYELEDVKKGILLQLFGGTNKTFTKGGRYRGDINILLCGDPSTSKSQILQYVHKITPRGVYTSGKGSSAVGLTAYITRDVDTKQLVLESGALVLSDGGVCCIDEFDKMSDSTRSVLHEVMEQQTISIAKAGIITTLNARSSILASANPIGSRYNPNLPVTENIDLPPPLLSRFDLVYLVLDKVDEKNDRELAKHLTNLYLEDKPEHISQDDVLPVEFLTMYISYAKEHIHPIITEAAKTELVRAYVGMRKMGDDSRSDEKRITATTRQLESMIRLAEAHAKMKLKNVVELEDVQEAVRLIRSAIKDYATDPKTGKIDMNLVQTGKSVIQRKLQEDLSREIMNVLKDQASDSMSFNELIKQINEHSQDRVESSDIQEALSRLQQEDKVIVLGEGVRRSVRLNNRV

B1: Mcm7 (natural protein, S. cerevisiae, UniProt P38132 1-845, looked up)
chain: MSAALPSIQLPVDYNNLFNEITDFLVTFKQDTLSSDATRNENEDENLDAENIEQHLLEKGPKYMAMLQKVANRELNSVIIDLDDILQYQNEKFLQGTQADDLVSAIQQNANHFTELFCRAIDNNMPLPTKEIDYKDDVLDVILNQRRLRNERMLSDRTNEIRSENLMDTTMDPPSSMNDALREVVEDETELFPPNLTRRYFLYFKPLSQNCARRYRKKAISSKPLSVRQIKGDFLGQLITVRGIITRVSDVKPAVEVIAYTCDQCGYEVFQEVNSRTFTPLSECTSEECSQNQTKGQLFMSTRASKFSAFQECKIQELSQQVPVGHIPRSLNIHVNGTLVRSLSPGDIVDVTGIFLPAPYTGFKALKAGLLTETYLEAQFVRQHKKKFASFSLTSDVEERVMELITSGDVYNRLAKSIAPEIYGNLDVKKALLLLLVGGVDKRVGDGMKIRGDINVCLMGDPGVAKSQLLKAICKISPRGVYTTGKGSSGVGLTAAVMKDPVTDEMILEGGALVLADNGICCIDEFDKMDESDRTAIHEVMEQQTISISKAGINTTLNARTSILAAANPLYGRYNPRLSPLDNINLPAALLSRFDILFLMLDIPSRDDDEKLAEHVTYVHMHNKQPDLDFTPVEPSKMREYIAYAKTKRPVMSEAVNDYVVQAYIRLRQDSKREMDSKFSFGQATPRTLLGIIRLSQALAKLRLADMVDIDDVEEALRLVRVSKESLYQETNKSKEDESPTTKIFTIIKKMLQETGKNTLSYENIVKTVRLRGFTMLQLSNCIQEYSYLNVWHLINEGNTLKFVDDGTMDTDQEDSLVSTPKLAPQTTASANVSAQDSDIDLQDA
notes: Mcm7, S. cerevisiae; also called minichromosome maintenance protein 7
B2: Mcm4^R701A (natural protein, S. cerevisiae, UniProt P30665 1-933, looked up)
chain: T1 sequence (looked up) with R701A
notes: Mcm4, S. cerevisiae; entire MCM4 ORF with the SRF arginine R701 changed to alanine; Purification of the mutant is not described separately; also called 4^RA; Mcm4^RA; source: purified

Assays:
Details in all cases: both partners purified
[1] = target: T1, Mcm4; experiment: cross-linking; glutaraldehyde, 9 ug Mcm4/6/7 in 20 mM HEPES NaOH pH 8.4, 10 mM magnesium acetate, no nucleotide; 16°C 30 min then 2 min 37°C; 3.5% SDS-phosphate gel
[2] = target: B2; experiment: SEC; 5.2 nmol each subunit mixed, 5 mg/ml, 16°C 30 min; Superose 6 10/300 GL, 20 mM Tris-HCl pH 7.5, 0.1 mM EDTA, 2 mM DTT, 100 mM NaCl, 10% glycerol; no nucleotide
[3] = target: T2, Mcm6 (S. cerevisiae, UniProt P53091 1-1017); experiment: as above
T2 construct: Mcm6, S. cerevisiae; also called minichromosome maintenance protein 6
T2 sequence (P53091 whole entry): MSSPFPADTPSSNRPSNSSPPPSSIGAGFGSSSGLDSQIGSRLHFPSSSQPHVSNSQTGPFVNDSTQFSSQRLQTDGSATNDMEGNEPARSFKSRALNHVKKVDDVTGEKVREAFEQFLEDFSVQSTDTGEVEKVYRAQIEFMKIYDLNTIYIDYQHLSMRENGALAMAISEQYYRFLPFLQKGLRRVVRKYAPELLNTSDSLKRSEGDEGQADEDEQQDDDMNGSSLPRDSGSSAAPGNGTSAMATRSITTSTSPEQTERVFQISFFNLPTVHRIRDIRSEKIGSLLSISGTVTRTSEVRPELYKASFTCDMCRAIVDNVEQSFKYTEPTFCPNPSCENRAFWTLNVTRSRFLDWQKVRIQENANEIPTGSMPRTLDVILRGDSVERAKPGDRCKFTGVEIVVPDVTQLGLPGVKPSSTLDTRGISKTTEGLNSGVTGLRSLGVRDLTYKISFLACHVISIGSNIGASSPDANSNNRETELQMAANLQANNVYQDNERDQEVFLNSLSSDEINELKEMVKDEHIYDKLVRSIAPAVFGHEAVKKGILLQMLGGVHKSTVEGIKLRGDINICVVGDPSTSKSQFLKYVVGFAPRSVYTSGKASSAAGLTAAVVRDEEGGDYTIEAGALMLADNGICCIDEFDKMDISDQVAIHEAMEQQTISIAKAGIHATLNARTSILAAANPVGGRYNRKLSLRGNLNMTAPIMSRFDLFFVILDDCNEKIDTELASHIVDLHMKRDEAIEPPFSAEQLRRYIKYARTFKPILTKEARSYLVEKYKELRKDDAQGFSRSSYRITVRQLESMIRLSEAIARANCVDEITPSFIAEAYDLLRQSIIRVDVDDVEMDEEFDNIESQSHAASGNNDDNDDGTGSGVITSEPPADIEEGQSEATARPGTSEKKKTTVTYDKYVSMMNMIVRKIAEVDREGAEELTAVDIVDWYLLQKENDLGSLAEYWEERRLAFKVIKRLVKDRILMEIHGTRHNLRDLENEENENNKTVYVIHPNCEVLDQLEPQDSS

binding result [1] | binding result [2] | binding result [3] | Binder
binds | binds |  | B1
 |  | binds | B2
